{"source": "patent US20150031864A1", "biological_target": "human growth hormone receptor on IM-9 cells (human) (UniProt P10912)", "sequence (P10912 19-638)": "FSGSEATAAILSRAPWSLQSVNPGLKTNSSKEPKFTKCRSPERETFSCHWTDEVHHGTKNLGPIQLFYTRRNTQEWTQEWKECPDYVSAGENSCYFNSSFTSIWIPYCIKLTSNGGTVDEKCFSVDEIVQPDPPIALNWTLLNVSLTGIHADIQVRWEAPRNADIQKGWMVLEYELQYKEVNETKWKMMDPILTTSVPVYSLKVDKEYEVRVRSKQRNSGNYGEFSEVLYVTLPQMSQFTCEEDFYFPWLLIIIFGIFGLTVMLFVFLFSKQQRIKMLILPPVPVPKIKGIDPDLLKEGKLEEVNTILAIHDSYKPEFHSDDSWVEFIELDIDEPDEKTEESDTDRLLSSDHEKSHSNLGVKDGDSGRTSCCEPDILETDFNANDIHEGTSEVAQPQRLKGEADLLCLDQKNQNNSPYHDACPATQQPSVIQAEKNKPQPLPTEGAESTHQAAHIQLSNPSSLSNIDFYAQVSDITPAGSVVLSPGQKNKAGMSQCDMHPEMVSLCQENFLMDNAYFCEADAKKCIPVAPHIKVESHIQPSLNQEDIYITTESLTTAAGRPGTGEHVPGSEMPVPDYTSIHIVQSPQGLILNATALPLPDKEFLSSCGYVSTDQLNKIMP", "assay": "cell-based or functional assay"}
{"substance": "N-6His A155pAF hGH (from UniProt P01241 27-217) (ligand)", "values": [{"measurement": "EC50 (nM) of STAT5 phosphorylation in IM-9 cells", "result": 1.3, "unit": "nM"}]}
{"substance": "N-6His E88pAF hGH (from UniProt P01241 27-217) (ligand)", "values": [{"measurement": "EC50 (nM) of STAT5 phosphorylation in IM-9 cells", "result": 0.9, "unit": "nM"}]}
{"substance": "N-6His F92pAF hGH (from UniProt P01241 27-217) (ligand)", "values": [{"measurement": "EC50 (nM) of STAT5 phosphorylation in IM-9 cells", "result": 0.8, "unit": "nM"}]}
{"substance": "N-6His F139pAF hGH (from UniProt P01241 27-217) (ligand)", "values": [{"measurement": "EC50 (nM) of STAT5 phosphorylation in IM-9 cells", "result": 3.3, "unit": "nM"}]}
{"substance": "N-6His G131pAF hGH (from UniProt P01241 27-217) (ligand)", "values": [{"measurement": "EC50 (nM) of STAT5 phosphorylation in IM-9 cells", "result": 0.8, "unit": "nM"}]}
{"substance": "N-6His G136pAF hGH (from UniProt P01241 27-217) (ligand)", "values": [{"measurement": "EC50 (nM) of STAT5 phosphorylation in IM-9 cells", "result": 1.4, "unit": "nM"}]}
{"substance": "N-6His K140pAF hGH (from UniProt P01241 27-217) (ligand)", "values": [{"measurement": "EC50 (nM) of STAT5 phosphorylation in IM-9 cells", "result": 2.7, "unit": "nM"}]}
{"substance": "N-6His N99pAF hGH (from UniProt P01241 27-217) (ligand)", "values": [{"measurement": "EC50 (nM) of STAT5 phosphorylation in IM-9 cells", "result": 8.5, "unit": "nM"}]}
{"substance": "N-6His P133pAF hGH (from UniProt P01241 27-217) (ligand)", "values": [{"measurement": "EC50 (nM) of STAT5 phosphorylation in IM-9 cells", "result": 1, "unit": "nM"}]}
{"substance": "N-6His Q91pAF hGH (from UniProt P01241 27-217) (ligand)", "values": [{"measurement": "EC50 (nM) of STAT5 phosphorylation in IM-9 cells", "result": 2, "unit": "nM"}]}
{"substance": "N-6His R134pAF hGH (from UniProt P01241 27-217) (ligand)", "values": [{"measurement": "EC50 (nM) of STAT5 phosphorylation in IM-9 cells", "result": 0.9, "unit": "nM"}]}
{"substance": "N-6His S95pAF hGH (from UniProt P01241 27-217) (ligand)", "values": [{"measurement": "EC50 (nM) of STAT5 phosphorylation in IM-9 cells", "result": 16.7, "unit": "nM"}]}
{"substance": "N-6His T135pAF hGH (from UniProt P01241 27-217) (ligand)", "values": [{"measurement": "EC50 (nM) of STAT5 phosphorylation in IM-9 cells", "result": 0.9, "unit": "nM"}]}
{"substance": "N-6His Y103pAF hGH (from UniProt P01241 27-217) (ligand)", "values": [{"measurement": "EC50 (nM) of STAT5 phosphorylation in IM-9 cells", "result": 130000, "unit": "nM"}]}
{"substance": "N-6His Y111pAF hGH (from UniProt P01241 27-217) (ligand)", "values": [{"measurement": "EC50 (nM) of STAT5 phosphorylation in IM-9 cells", "result": 1, "unit": "nM"}]}
{"substance": "N-6His Y143pAF hGH (from UniProt P01241 27-217) (ligand)", "values": [{"measurement": "EC50 (nM) of STAT5 phosphorylation in IM-9 cells", "result": 0.8, "unit": "nM"}]}
{"substance": "rat GH WT (from UniProt P01244 27-216) (ligand)", "values": [{"measurement": "EC50 (nM) of STAT5 phosphorylation in IM-9 cells", "result": "> 200000", "unit": "nM"}]}
